According to doi:10.1101/758714 (bioRxiv, 2019):

T1: CRY1 photolyase homology region (PHR), residues 1-491 (human, UniProt Q16526 1-491)
T1 sequence (looked up): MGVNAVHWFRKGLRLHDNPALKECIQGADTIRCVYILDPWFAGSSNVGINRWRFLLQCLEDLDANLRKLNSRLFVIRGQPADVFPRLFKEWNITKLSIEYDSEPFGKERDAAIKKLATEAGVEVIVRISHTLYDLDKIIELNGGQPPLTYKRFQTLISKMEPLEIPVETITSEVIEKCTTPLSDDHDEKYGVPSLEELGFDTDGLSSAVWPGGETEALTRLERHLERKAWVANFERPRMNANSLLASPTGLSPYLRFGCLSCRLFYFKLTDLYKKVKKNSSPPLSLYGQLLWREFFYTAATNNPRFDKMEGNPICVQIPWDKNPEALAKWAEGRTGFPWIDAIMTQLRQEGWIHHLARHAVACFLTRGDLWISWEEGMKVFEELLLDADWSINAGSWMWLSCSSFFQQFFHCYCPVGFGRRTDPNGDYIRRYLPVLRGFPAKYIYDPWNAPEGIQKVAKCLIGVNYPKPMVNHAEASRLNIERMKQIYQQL


Key:
[1] = target: CRY1 photolyase homology region (PHR), residues 1-491 (human) (UniProt Q16526); experiment: fluorescence polarisation
[2] = target: T1, CRY1 photolyase homology region (PHR), …; experiment: fluorescence polarisation

Molecule | fold lower affinity than the hCRY1 tail [1] [fold] | Kd [2] [µM]
Δ11 version of the human CRY1 tail (from UniProt Q16526 492-586) (domain or fragment) | 4 | 
human CRY1 tail (residues 492-586) (domain or fragment, UniProt Q16526 492-586, looked up, fluorescein (FAM) on the N-terminus in the FP binding assays) SRYRGLGLLASVPSNPNGNGGFMGYSAENIPGCSSSGSCSQGSGILHYAHGDSQQTHLLKQGRSSMGTGLSGGKRPSQEEDTQSIGPKVQRQSTN |  | ~5
